Read-outs that look alike come from different tables or passages of the source. Values belong to the substance of their own block, whether it stands above or below them.
Legend:
[1] = target: CAT-2200 heavy chain Fab construct (H1) L143E_K145T_Q179E; experiment: LCCA, SPR tag read-out
[2] = target: CAT-2200 heavy chain Fab construct (H1) L143E_K145T; experiment: LCCA, SPR tag read-out
[3] = target: CAT-2200 heavy chain Fab construct (H1) Q179K; experiment: LCCA, SPR tag read-out
[4] = target: CAT-2200 heavy chain Fab construct (H1) D146G_Q179K; experiment: LCCA, SPR tag read-out
[5] = target: CAT-2200 heavy chain Fab construct (H1) Q179K; experiment: LCCA, SPR tag read-out; remark: listed apart in the source
[6] = target: CAT-2200 heavy chain Fab construct (H1) S186R; experiment: LCCA, SPR tag read-out
[7] = target: CAT-2200 heavy chain Fab construct (H1) S186R; experiment: LCCA, SPR tag read-out; remark: listed apart in the source
[8] = target: CAT-2200 heavy chain Fab construct (H1) L124E; experiment: LCCA, SPR tag read-out
[9] = target: Pertuzumab kappa light chain S121K_S131K; experiment: LCCA
[10] = target: Pertuzumab kappa light chain S121K_T129K_S131K; experiment: LCCA
[11] = target: Pertuzumab kappa light chain S131K_L135A; experiment: LCCA
[12] = target: Pertuzumab kappa light chain S176K_T178K (L2), HA-tagged; experiment: LCCA, SPR of light-chain tags
[13] = target: Pertuzumab kappa light chain S176K_T178L (L2), HA-tagged; experiment: LCCA, SPR of light-chain tags
[14] = target: Pertuzumab kappa light chain S176K_T178R (L2), HA-tagged; experiment: LCCA, SPR of light-chain tags
[15] = target: Pertuzumab kappa light chain S176K_T178K (L2), HA-tagged; experiment: LCCA, SPR of light-chain tags; remark: listed apart in the source
[16] = target: Pertuzumab kappa light chain S176K_T178L (L2), HA-tagged; experiment: LCCA, SPR of light-chain tags; remark: listed apart in the source
[17] = target: Pertuzumab kappa light chain S176K_T178R (L2), HA-tagged; experiment: LCCA, SPR of light-chain tags; remark: listed apart in the source
[18] = target: Pertuzumab kappa light chain S176K_T178K (L2), HA-tagged; experiment: LCCA, SPR of light-chain tags; remark: listed apart in the source
[19] = target: Pertuzumab kappa light chain S176K_T178L (L2), HA-tagged; experiment: LCCA, SPR of light-chain tags; remark: listed apart in the source
[20] = target: Pertuzumab kappa light chain S176K_T178R (L2), HA-tagged; experiment: LCCA, SPR of light-chain tags; remark: listed apart in the source
[21] = target: Pertuzumab kappa light chain S176K_T178K (L2), HA-tagged; experiment: LCCA, SPR of light-chain tags; remark: listed apart in the source
[22] = target: Pertuzumab kappa light chain S176K_T178L (L2), HA-tagged; experiment: LCCA, SPR of light-chain tags; remark: listed apart in the source
[23] = target: Pertuzumab kappa light chain S176K_T178R (L2), HA-tagged; experiment: LCCA, SPR of light-chain tags; remark: listed apart in the source
[24] = target: Pertuzumab kappa light chain S176K_T178K (L2), HA-tagged; experiment: LCCA, SPR of light-chain tags; remark: listed apart in the source
[25] = target: Pertuzumab kappa light chain S176K_T178R (L2), HA-tagged; experiment: LCCA, SPR of light-chain tags; remark: listed apart in the source

Substance: CAT-2200 lambda light chain construct (L1) E124K_Y178R, FLAG-tagged
H1L1:H1L2 normalized median scalar value ln(r1/f1) [1]: -0.13

Substance: CAT-2200 lambda light chain construct (L1) E124R, FLAG-tagged
H1L1:H1L2 normalized median scalar value ln(r1/f1) [2]: -0.11

Substance: CAT-2200 lambda light chain construct (L1) V133G_S176R, FLAG-tagged
H1L1:H1L2 normalized median scalar value ln(r1/f1) [8]: 0.08

Substance: Pertuzumab Fab heavy chain K145T_Q179E_S188F_V190F
H2L2:H2L1 median scalar value [11]: -0.45 ln

Continued, values first:

H1L1:H1L2 normalized median scalar value ln(r1/f1) [3]: 0.94
H1L1:H1L2 normalized median scalar value ln(r1/f1) [4]: 2.16
H1L1:H1L2 normalized median scalar value ln(r1/f1) [5]: 2.32
H1L1:H1L2 normalized median scalar value ln(r1/f1) [6]: 2.24
H1L1:H1L2 normalized median scalar value ln(r1/f1) [7]: 2.07
Substance: CAT-2200 lambda light chain construct (L1) S180E, FLAG-tagged

H2L2:H2L1 median scalar value [9]: -0.1 ln
H2L2:H2L1 median scalar value [10]: 0.07 ln
H2L2:H2L1 normalized median ratio [10]: 51%
Substance: Pertuzumab Fab heavy chain K145T_Q179E_K228D

H2L2:H2L1 normalized median scalar value ln(r1/f1) [12]: 1.83
H2L2:H2L1 normalized median scalar value ln(r1/f1) [13]: 2.29
H2L2:H2L1 normalized median scalar value ln(r1/f1) [14]: 1.64
H2L2:H2L1 normalized median scalar value ln(r1/f1) [15]: 1.95
H2L2:H2L1 normalized median scalar value ln(r1/f1) [16]: 1.52
H2L2:H2L1 normalized median scalar value ln(r1/f1) [17]: 1.9
H2L2:H2L1 normalized median scalar value ln(r1/f1) [18]: 2.4
H2L2:H2L1 normalized median scalar value ln(r1/f1) [19]: 2.11
H2L2:H2L1 normalized median scalar value ln(r1/f1) [20]: 2.3
H2L2:H2L1 normalized median scalar value ln(r1/f1) [21]: 1.93
H2L2:H2L1 normalized median scalar value ln(r1/f1) [22]: 1.59
H2L2:H2L1 normalized median scalar value ln(r1/f1) [23]: 1.59
H2L2:H2L1 normalized median scalar value ln(r1/f1) [24]: 1.09
H2L2:H2L1 normalized median scalar value ln(r1/f1) [25]: 1.75
Substance: Pertuzumab Fab heavy chain K145T_V177D_S188D (H2)
